Test results: the RNAGym collection of RNA variant scans (doi:10.1073/pnas.2313332121)
Variants at the floor of the assay were thinned out.

B1: TPR 5TU (parent)
chain: GGAUCUUCUCGAUCUAACAAAAAAGACAAAUCUGCCACAAAGCUUGAGAGCAUCUUCGGAUGCAGAGGCGGCAGCCUUCGGUGGCGCGAUAGCGCCAACGUUCUCAACUAUGACACGCAAAACGCGUGCUCCGUUGAAUGGAGUUUAUCAUG

Variants of: B1
Test: polymerase ribozyme fitness, log enrichment relative to wild type (log ratio); higher = more active; in vitro selection for triplet polymerase activity
Procedure, shortened: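 One round of in vitro selection, in triplicate, was applied to PCR-built, transcribed mutant libraries of each subunit of a heterodimeric triplet polymerase ribozyme. The steps were annealing with a biotinylated primer, partner subunit and triplets, incubation frozen at −7 °C, gel excision of extended constructs, streptavidin-bead capture and RT-PCR. Fitness is the logarithm, base 2, of genotype enrichment over wild-type enrichment from inverse-variance-weighted replicate averages of Illumina-sequenced inputs and outputs, keeping genotypes with ≥10 input reads and ≥1 read per output.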
With GGAUCUUCUCGAUCUAACAAAUAAGACAAAUCUGCCACAAAGCUUGAGAGCAUCUUCGGAUGCAGAGGCGGCAGCCUUCGGUGGCGCGAUAGCGCCGACGUUCUCAACUAUGACACGCAAAGCGCGUGCUCCGUUGAAUGGAGUUUAUCAUG [A22U A97G A122G] the “polymerase ribozyme fitness (log ratio)” value was 0.332.
For GGAUCUUCUCGAUCUAACAAAAAAGACAAAUCUGCCACAAAGCUUGAGAGCAUCAUCGGAUGCAGAGGCGGCAGCCUUCGGUGGCGCGAUAGCGCCAACGUUCUCAGCUAUGACACGCAAAACGCGUGCUCCGUUGAAUGGAGUUUAUCAUG [U55A A107G], the “polymerase ribozyme fitness (log ratio)” value was -3.7.
For GGAGCUUCUCGAUCUAACAAUAAAGACAAAUGUGCCAGAAAGCUUGAGAGCAUCUUCGGAUGCAGAGGCGGCAGCCUUCGGUGGCGCGAUAGGGCCAACGUUCUCAACUAUGACACGCAAAACGCGUGCUCCGUUGAAUGGAGUUAAUCAUG [U4G A21U C32G C38G C93G U146A], the “polymerase ribozyme fitness (log ratio)” value was no more than -4.2.
For GGAUCUUCUCGAUCUAACAAAAAAGACAAAUCUGCCACAAAGCUUGAGAGCAUCUUCGGAUGCAGAGGCGGCAGCCUUCGGUGGCCCGAUAGCGCUAACGUUCUCAACUAUGACACGCAAAACGCGUGCUCCGUUGAAUGGAGUUUAUCAUG [G86C C96U], the “polymerase ribozyme fitness (log ratio)” value was -2.67.
With GGAUCUUCUCGAUCUAACAAAAAAGACAAAUCUGCCACAAAGCUAGAGAGCAUCUUCGGAUGCAGAGGCGGCAGCCUUCGGUGGCGCGAUAGCGCCAAAGUUCUCAACUAUGACACGCAAAACGCGUGCUCCGUUGAAUGGAGUUUAUCAUG [U45A C99A] the “polymerase ribozyme fitness (log ratio)” value was no more than -4.2.
In the case of GGAUCUUCUCGAUCUUACAAAAAAGACAAAUCUGCCACAAAGCUUGAGAGCAUCGUCGGAUGCAGAGGCGGCAGCCUUCGGUGGGGCGAUAGCGCCAACGUUUUCAACUAUGACACGCAAUACGCGUGCUCCGUUGAAUGGAGUUUAUCAUG [A16U U55G C85G C103U A121U], the “polymerase ribozyme fitness (log ratio)” value is reported as -4.13.
In the case of GGCUCUUCUCGAUCUAACAAAAAAGACAAAUCUGCCACAAAGCUUGAGAGCAUCUUCCGAUGCAGAGGCGGCAGCCUUCGGUGGCGCGAUAGCGGCAACGUUCUCAACUAUGACACGCAAAACGCGUGAUCCGUUGAAUGGCGUUUAUCAUG [A3C G58C C95G C129A A142C], the “polymerase ribozyme fitness (log ratio)” value is reported as no more than -4.2.
For GGAUCUUCUCGAUCUAACAAAAAAGACAAAUCUGCCACAAAGCUUGAGAGCAUAUUCGGAUGCAGAGGCGGCAGCCUUCGGUGGCGCGAUAGCGCCAACGUUCACAACUAUGACACGCAAAACGCGUGCUUCGUUGAAUGGAGUUUAUCAUG [C54A U104A C131U], the “polymerase ribozyme fitness (log ratio)” value was -2.14.
In the case of GGAUCUUCUCGAUCUAACAAAAAAGACAAAUCUGCCACAAAGCUUGAGAGCAUCUUCGGAUGCAGAGGCGGCAGCCUUCGGUGGCGCGAUAGCGCGAACGUUCUCAACUAUGACACGCAAAACGCGUGCUCCGUUGAAUGCAGUUUAUCAUG [C96G G141C], the “polymerase ribozyme fitness (log ratio)” value is reported as -0.919.
In the case of GGAUCUUCUCAAUCUUACAAAAAUGACAAAUCUGCCACAAAGCUUGAGAGCAUCUUCGGAUGCAGAGGCGGCAGCCUUCGGUGGAGCGAUAGCGCCAACGUUCUCAACUAUGACACGCAAAACGCGUGCUCCGUUGAAUGGCGUUUAUCAUG [G11A A16U A24U C85A A142C], the “polymerase ribozyme fitness (log ratio)” value is reported as no more than -4.2.
For GGAUCUUCUCGAUCUAACAGAAAUGACAAAUCUGCCACAAAGCUUGAGAGCAUCUUCGGAUGCAGAGGCGGCAGCCUUCGGUGGAGCGAUAGCGCCAACGUUCUCAACUAUGACAAGCAAAACGCGUGCUCCGUUGAAUGGAGUUUAUCAUG [A20G A24U C85A C116A], the “polymerase ribozyme fitness (log ratio)” value was -0.238.
For GGAUCUUCUCGAUCUAACAACAAAGACAAAUCUGCCACAAAGCUUGAGAGCAUCUUAGGAUGCAGAGGCGGCAGCCUUCGUUGGAGCGAUAGCGCCAACGUUCUCAACUAUGACACGCAAAACGCGUGCUCCGUUGAAGGGAGUUUAUCAUG [A21C C57A G81U C85A U139G], the “polymerase ribozyme fitness (log ratio)” value was -0.214.
In the case of GGAUCUUCUCGAUCUAACAAAAAAGACAAAUCUGCCACAAAGCUUGAGGGCAUCUUUGGAUGCAGAGGCGGCAGACUUCGGUGGCGCGAUAGCGCCAACGUUCUCAACUAUGACACGCAAAACGCGUGCUCCGUUGAAUGGAGUUGAUCAUG [A49G C57U C75A U146G], the “polymerase ribozyme fitness (log ratio)” value is reported as no more than -4.2.
For GGAUCUUCUCGAUCUAAGAAAAAAGACAAAUCUGCCAGAAAGCUUGAGAGCAUCUUCGGAUGCAGAGGCGGCAGCCUUCGCUGGCGCGAUAGGGCCAACGUUCUCAACUAUGACACGCAAAACGCGUGCUCCGUUGAAUGGAGUUUAUCAUG [C18G C38G G81C C93G], the “polymerase ribozyme fitness (log ratio)” value was no more than -4.2.
In the case of GGAUCUUCUGGAUCUAACAAAAAAGACAAAACUGCCACAAAGCCUGAGAGCAUCUUAGUAGGCAGAGGCGGCAGCCUUCGGUGGCGCGAUACCGCCAACGUUCUCAUCUAUGACACGCAAAACGCGUGCUCCGUUGAAUGGAGUUUAUCAUG [C10G U31A U44C C57A G59U U61G G92C A107U], the “polymerase ribozyme fitness (log ratio)” value is reported as no more than -4.2.
In the case of GGAUCUUCGCGAUCUUACAAAAAAGACAAAUCUGCCACAAAGCUUGAGAGCAUCUUCGGAUGCUGAGGCGGCAGCCUUCGGUGGGGCGAUAGCGCCAACGUUCUCAACUAUGACACGCAAAACGCGUGCUCCGUCGAAUGGAGGUUAUCUUG [U9G A16U A64U C85G U135C U144G A150U], the “polymerase ribozyme fitness (log ratio)” value is reported as no more than -4.2.
In the case of GGAUCUUCUCGAUCUAACAAAAAAGACAAAUCUGCCACAAAGCUUGAGAGCAUCUUCGGAUGCAGAGGCGGCAGCCUUCGGUGGCGCGAUCGCGCCAACGUUCUCAACUAUGGCACGCAAAACGCGUGCUCCGUUGAUUGGAGUUUAUCAUG [A91C A113G A138U], the “polymerase ribozyme fitness (log ratio)” value is reported as no more than -4.2.
For GGAUCUUCUCGAUCUAACAAAAAAGACAAAUCUGCCACAAAGCUUGAGAACAUCUUCGGAUGCAGAGGCGGCAGCCUUCGGUGGCGCGAUAGCGCCAACGUUCUCAACUAUGACACGCAAAACGCGUGCUCCGUUGAAUGGAGUCUAUCAUG [G50A U145C], the “polymerase ribozyme fitness (log ratio)” value was -0.761.
With GGAUCUUCUCGAUCUAACAAAAAAGACAAAUCUGCCACAAAGCUUGAGAGCAUCUUCGGAUGCAGAGGCGGCAGCCUUCGGUGGCCCGAUAGCGCCAACGUUCUCAACUAUGACACGCAAAACGCGUGCUUCGUUGAAUGGAGUUUAUCAUG [G86C C131U] the “polymerase ribozyme fitness (log ratio)” value was -2.55.
